B1: Emerin (Homo sapiens), P50402 (parent)
chain: MDNYADLSDTELTTLLRRYNIPHGPVVGSTRRLYEKKIFEYETQRRRLSPPSSSAASSYSFSDLNSTRGDADMYDLPKKEDALLYQSKGYNDDYYEESYFTTRTYGEPESAGPSRAVRQSVTSFPDADAFHHQVHDDDLLSSSEEECKDRERPMYGRDSAYQSITHYRPVSASRSSLDLSYYPTSSSTSFMSSSSSSSSWLTRRAIRPENRAPGAGLGQDRQVPLWGQLLLFLVFVIVLFFIYHFMQAEEGNPF

Variants of: B1
Details: with bclf1_human BCLAF1, Q9NYF8
Sequence of bclf1_human BCLAF1, Q9NYF8 (Q9NYF8 whole entry): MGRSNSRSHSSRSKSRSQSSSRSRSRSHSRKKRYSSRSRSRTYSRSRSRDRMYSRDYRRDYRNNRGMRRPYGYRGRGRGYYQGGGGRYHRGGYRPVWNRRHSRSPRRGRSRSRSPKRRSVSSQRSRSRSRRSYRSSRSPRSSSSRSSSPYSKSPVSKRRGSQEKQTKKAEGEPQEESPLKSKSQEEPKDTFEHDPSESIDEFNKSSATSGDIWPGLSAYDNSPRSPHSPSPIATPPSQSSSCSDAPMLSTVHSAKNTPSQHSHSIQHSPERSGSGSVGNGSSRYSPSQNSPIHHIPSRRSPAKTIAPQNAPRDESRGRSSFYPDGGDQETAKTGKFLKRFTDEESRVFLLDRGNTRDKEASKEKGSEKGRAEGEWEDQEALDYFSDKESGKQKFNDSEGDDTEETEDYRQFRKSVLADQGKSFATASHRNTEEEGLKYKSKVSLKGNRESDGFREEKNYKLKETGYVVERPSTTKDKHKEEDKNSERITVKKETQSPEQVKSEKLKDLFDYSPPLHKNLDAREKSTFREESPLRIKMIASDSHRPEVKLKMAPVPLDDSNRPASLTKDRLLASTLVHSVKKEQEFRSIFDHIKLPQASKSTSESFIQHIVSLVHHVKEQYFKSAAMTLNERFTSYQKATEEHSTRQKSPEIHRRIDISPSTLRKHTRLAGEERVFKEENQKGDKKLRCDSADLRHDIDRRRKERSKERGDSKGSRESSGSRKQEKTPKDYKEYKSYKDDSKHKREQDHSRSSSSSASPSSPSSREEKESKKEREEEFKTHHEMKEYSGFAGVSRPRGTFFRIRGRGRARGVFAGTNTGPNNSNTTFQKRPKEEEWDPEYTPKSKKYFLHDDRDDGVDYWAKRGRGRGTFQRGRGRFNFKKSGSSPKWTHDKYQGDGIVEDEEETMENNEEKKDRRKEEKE

Effect of a mutation on the interaction, decreasing interaction:
S175A;S176A
R45A;R46A;R47A
S192A;S194A;S195A;S196A
I206A;R207A;E209A
D70A;D72A;Y74A
G214A;L217A
S54F
R207A;P208A
S197A;S198A
L76A;K78A;E80A;L83A

Source: IntAct's records for PubMed 15009215
